In the DeepSol protein solubility set:

Test: soluble on expression in E. coli; label from the status in PepcDB or PDB records

Sequence | soluble on expression in E. coli
TTPAPESNRKYIIAVTACPTGIAHTYMAEDALKKKAKEMGVDIKVETNGSEGIKNRLTAEDIARADGVIVAADKKVEMNRFDGKKLVNRPVSDGIRKTEELINLAISGEAPTFHGSDSAA | not soluble
MDFLSREGSPISAELWEKIDEAVVSAAKKILTGRRFISIYGPLGAGIQAINVDNISELDETEENISVIRGRTYRHIPLINEDFSLLWRDLEFSEQMGLPVDLSSASRAATQCALREDKLIFYGNDELGYKGLLTEDGIVKFPISNWSEGENPFKDISIGLAKFIENGIVGRKALVVSPNLFVQLQRIQPGTGTTEYDRINKLLDGNIFSTPVLKDDKAVLVCSEPQNIDLVIGQDMITSYLETKNLNHYFRIMETILLRIKNKKAVIVFD | not soluble
MTKNLLVELGLEELPAYVVTPSEKQLGEKMAAFLKGKRLSFEAIQTFSTPRRLAVRVTGLADKQSDLTEDFKGPAKKIALDSDGNFTKAAQGFVRGKGLTVEDIEFREIKGEEYVYVTKEEIGQAVEAIVPGIVDVLKSLTFPVSMHWAGNSFEYIRPVHTLTVLLDEQEFDLDFLDIKGSRVSRGHRFLGQETKIQSALSYEEDLRKQFVIADPCEREQMIVDQIKEIEAKHGVRIEIDADLLNEVLNLVEYPTAFMGSFDAKYLEVPEEVLVTSMKEHQRYFVVRDQDGKLLPNFISVRNGNAERLKNVIKGNEKVLVARLEDGEFFWREDQKLVISDLVEKLNNVTFHEKIGSLREHMIRTGQITVLLAEKASLSVDETVDLARAAAIYKFDLLTGMVGEFDELQGIMGEKYTLLAGETPAVAAAIREHYMPTSAEGELPESKVGAVLAIADKLDTILSFFSVGLIPSGSNDPYALRRATQGVVRILDAFGWHIAMDELIDSLYALKFDSLTYENKAEVMDFIKARVDKMMGSTPKDIKEAVLAGSNFV | not soluble
MASKRLGKQTVMLQNPPRITSTASIVGPKEGKGPLRLFFDNIIEDEMWGEKSWEKAESKLIRETFSKVLQKGNKTSQEIDYVISGDLLNQCIAANFGLRESDVPFFGVYGACSTIAESMSIGAMLVDGGFADNVVCITSSHFCSAEKQFRFPLELGTQRPPSAQWTVTGSGGVLISNDGSGPYITHITTGKIVDMGIKDANNMGAAMAPAAVDTIVTHFKDTGFTPESYDLILTGDLGAIGREICVELTREQGFNIENIYNDCGLMIYDREKQDTHAGGSGCGCAATVFAGFVYKKLMDGTLKNVLFVATGALLSPVSTQQGESIPSIAHAISITTSPER | soluble
MFKSLSQLFRPRVEALGLEIGASALKLVEVSGNPPALKALASRPTPPGLLMEGMVAEPAALAQEIKELLLEARTRKRYVVTALSNLAVILRPIQVPKMPLKEMEEAVRWEAERYIPFPIDEVVLDFAPLTPLSEVQEGEQVQVMVAAARQEAVAGVLEALRGAGLVPVVLDVKPFAGLYPLEARLAEEPDRVFLALDIGAESTSLVLLRGDKPLAVRVLTLSGKDFTEAIARSFNLDLLAAEEVKRTYGMATLPTEDEELLLDFDAERERYSPGRIYDAIRPVLVELTQELRRSLEFFRIQLEEASPEVGYLLGGGSKLRGLASLLTDTLGVNFEPVNPWEAVAVDPKRFESEQLQEIGPEFAVALGLALRGVEPLD | soluble
MCNNEAKMSELLSVQSDAPAKKINLMDLTRQQMREFFKELGEKPFRADQLVKWIYHFGEDNFDNMTNINKKLREKLKAVAEIKAPEVAVEQRSADGTIKWAMQVGEQQVETVYIPEADRATLCVSSQVGCALACTFCSTAQQGFNRNLTVSEIIGQVWRASKIIGNFGVTGVRPITNVVMMGMGEPLLNVANVVPAMEIMLDDFAYGLSKRRVTLSTSGVVPALDNLSKMIDVALAISLHAPNDELRDEIVPINKKYNIKTLIDSVNRYLNVSNANHGKVTIEYVMLDHVNDGVEHAHQLAEVLKNTPCKINLIPWNPFPEAPYAKSSNTRIDRFQKTLMEYDFTVIIRKTRGDDIDAACGQLAGDVIDRTKRTAMKRQFGQNIGVTEVN | not soluble
GPGSMPKEPILHAELREWLEEYRRHRAFNPIAWIEEKCTKLNEYMRNNKLRGCVTNVSGGVDSAVVLSLCSRAQRMEGSPIVRNVGICQPICSSAWALERGRENIRAAGAEEVVVDQTDIHRQLSLSVEAAVGIDGKDFARGQLRSYMRAPVGYYVAQLCSQSGTPTIVMGTGNMDEDGYLGYFCKAGDGVVDVQLISDLHKSEVFKVARELGVPENTLQAAPSADLWDGQTDEEELGFPYDFVELYTGYFLKLNNGEREMKKKSLSAEARHQFEAYMKSCEETHCRNAHKLNGIVNL | soluble
